Data published in the Immune Epitope Database (IEDB).

How the values were obtained:
Assay in all cases: IEDB peptide-MHC binding, purified MHC/competitive/radioactivity; filed as Kd, often an IC50 or EC50 that approximates it; ≥ and ≤ were set here for values at or beyond the usual limits of such assays
HLA-A*11:01 = molecular target: HLA-A*11:01
HLA-A*03:01 = molecular target: HLA-A*03:01
HLA-A*68:01 = molecular target: HLA-A*68:01
HLA-A*33:01 = molecular target: HLA-A*33:01
HLA-A*31:01 = molecular target: HLA-A*31:01
[1] = source organism: Vaccinia virus WR
[2] = source organism: Lassa virus Josiah
[3] = source organism: SARS coronavirus Tor2
[4] = source organism: Vaccinia virus Copenhagen
[5] = source organism: Mammarenavirus juninense

Sequence | Kd (HLA-A*11:01; [1]) [nM] | Kd (HLA-A*03:01; [1]) [nM] | Kd (HLA-A*68:01; [1]) [nM] | Kd (HLA-A*33:01; [1]) [nM] | Kd (HLA-A*31:01; [1]) [nM] | further results
LFSKNILKY | 5990 | 191 | 444 | 8620 | 3890 | –
ATDYIASGQR | 73.2 | 148 | 192 | 2110 | 197 | –
LTYSQLMTLK | – | – | – | – | – | Kd (HLA-A*11:01; [2]): 11.5 nM; Kd (HLA-A*03:01; [2]): 29.7 nM; Kd (HLA-A*68:01; [2]): 5 nM; Kd (HLA-A*33:01; [2]): 10700 nM; Kd (HLA-A*31:01; [2]): 1960 nM
DLTQIFEVY | 463 | 11100 | 857 | 938 | 1370 | –
TQWSLFFFVY | – | – | – | – | – | Kd (HLA-A*11:01; [3]): 358 nM; Kd (HLA-A*03:01; [3]): 2510 nM; Kd (HLA-A*68:01; [3]): 6710 nM; Kd (HLA-A*33:01; [3]): 1370 nM; Kd (HLA-A*31:01; [3]): 1580 nM
NVTLFYCDER | 2830 | 6080 | 8.23 | 818 | 777 | –
SLLKETIQK | – | – | – | – | – | Kd (HLA-A*11:01; [4]): 16.8 nM; Kd (HLA-A*03:01; [4]): 39.6 nM; Kd (HLA-A*68:01; [4]): 3480 nM; Kd (HLA-A*33:01; [4]): 7380 nM; Kd (HLA-A*31:01; [4]): ≥ 20000 nM
STSAADIKR | 13.2 | ≥ 30400 | 5.19 | ≥ 22100 | 1300 | –
SKQYIHCFRK | – | – | – | – | – | Kd (HLA-A*11:01; [5]): 1520 nM; Kd (HLA-A*03:01; [5]): 4500 nM; Kd (HLA-A*68:01; [5]): 2540 nM; Kd (HLA-A*33:01; [5]): ≥ 26100 nM; Kd (HLA-A*31:01; [5]): 898 nM
YTFAISYCR | – | – | – | – | – | Kd (HLA-A*11:01; [4]): 3.35 nM; Kd (HLA-A*03:01; [4]): 2760 nM; Kd (HLA-A*68:01; [4]): 0.418 nM; Kd (HLA-A*33:01; [4]): 1.73 nM; Kd (HLA-A*31:01; [4]): 0.933 nM
DTSYYVKEY | 14300 | ≥ 78000 | 69.1 | ≥ 77700 | ≥ 77900 | –
IILANERYR | 6670 | 9590 | 92.8 | 2770 | 106 | –
VSDLYTSMR | 4650 | 2490 | 651 | 4200 | 1310 | –
GVTFQGKFKK | – | – | – | – | – | Kd (HLA-A*11:01; [3]): 536 nM; Kd (HLA-A*03:01; [3]): 761 nM; Kd (HLA-A*68:01; [3]): 1860 nM; Kd (HLA-A*33:01; [3]): ≥ 24100 nM; Kd (HLA-A*31:01; [3]): 2840 nM
DTSASEIKDR | 1130 | 14800 | 17.6 | 835 | 7970 | –
RLFRSPQVK | 715 | 87.2 | 3670 | 15300 | 4960 | –
SVSIILANER | 77.1 | 2520 | 0.432 | 1640 | 655 | –
YITDDSDDY | ≥ 77900 | ≥ 78000 | ≥ 77700 | ≥ 77700 | ≥ 77900 | –
NMINKLYGY | 18600 | 2560 | ≥ 31900 | 14300 | ≥ 37800 | –
CSRMLDTSEK | 1610 | 1010 | 7700 | ≥ 70000 | 1560 | –
VFKGFSDKVR | 2640 | ≥ 70100 | ≥ 26800 | 925 | 201 | –
EVRIPVDLVK | 1660 | ≥ 64800 | 656 | 17000 | 9020 | –
LLNETAKVIK | 230 | 1590 | 4000 | 15400 | 2430 | –
SIHLTKTDK | 9.38 | 6.74 | 140 | ≥ 48300 | 9440 | –
LLKILDNLR | 629 | 19600 | 700 | 86 | 20.9 | –
HLTKTDKKY | 1970 | ≥ 22900 | 7290 | ≥ 41900 | 9480 | –
FMVSVSDFR | 493 | 3050 | 0.398 | 219 | 67.2 | –
PTKRCRLLK | 1040 | 1090 | ≥ 22700 | ≥ 23700 | 5310 | –
TIISEEYLSK | 1.74 | 39.5 | 16.6 | 8850 | 6710 | –
SMQNCLLRLK | – | – | – | – | – | Kd (HLA-A*11:01; [3]): 17.8 nM; Kd (HLA-A*03:01; [3]): 9.94 nM; Kd (HLA-A*68:01; [3]): 1280 nM; Kd (HLA-A*33:01; [3]): 725 nM; Kd (HLA-A*31:01; [3]): 18.1 nM
